Like-named read-outs stand apart in the source and are kept apart here.

Drawing on article doi:10.1101/2020.10.01.322123 (bioRxiv, 2020), this text covers Kd and fold weaker binding than peptide 414-430 for six molecules.

Assay [1] deals with JM-KD^pY1 (UniProt P21802). Description: SPR.
The target of assay [2] is CT^C1, untagged C-terminal tail of FGFR2 (the last 58 residues) (UniProt P21802). As to the kind of experiment: SPR.
For assay [3], the target named is JM-KD^pY1 (UniProt P21802). Description: MST.
The target in assay [4] is CT^C1, untagged C-terminal tail of FGFR2 (the last 58 residues) (UniProt P21802). As to the kind of experiment: MST.
The target in assay [5] is KD^pY1, mono-phosphorylated FGFR2 kinase domain (UniProt P21802). Description: MST.
The target in assay [6] is FGFR2 juxtamembrane region (JM) (UniProt P21802). Description: MST.
The target of a further assay is JM-KD^Y657/658F (UniProt P21802-3 414-764, Y657/658F).
Assay [7] addresses FGFR2 juxtamembrane region (JM) (UniProt P21802). Description: MST. This is another data set of the same source.

For the molecule “JM-KD^pY1 (from UniProt P21802-3 414-764) (domain or fragment)”, the dissociation constant Kd with JM-KD^pY1 [1] is 3.07 µM; in assay [2], 0.165 µM; with JM-KD^pY1 [3], 3.46 µM; in assay [4], 0.304 µM.
For the molecule JM peptide 407-420, in assay [5], the fold weaker binding than peptide 414-430 is 3 fold.
In turn, CT peptide 801-815 came in with a Kd in assay [5] of 25.9 µM. This counts as double-digit micromolar.
As to JM peptide 414-430, the Kd in assay [5] stood at 36.8 µM.
As for “KD^pY1, mono-phosphorylated FGFR2 kinase domain (from UniProt P21802-3 465-764) (domain or fragment)”, the Kd in assay [6] is 2.51 µM; in assay [5], 0.112 µM; in assay [4], 3.75 µM.

B1: CT^C1, untagged C-terminal tail of FGFR2 (the last 58 residues) (domain or fragment)
chain: TTNEEYLDLSQPLEQYSPSYPDTRSSCSSGDDSVFSPDPMPYEPCLPQYPHINGSVKT
modifications: Atto488 dye in the MST assays where CT is the labelled partner
Take B1: the figures for the Kd (in the assay with JM-KD^Y657/658F; in assay [7]) were 5.65 ± 1.9 µM and 20.2 µM, respectively.
